Assay results from US20040146882A1, “Human acid sensing ion channel 2b (hASIC2b), process for producing the same, and its use” (priority 2002, published 2004).

T1: ASIC1 (Rattus norvegicus, UniProt P55926)
T1 sequence (P55926 1-526): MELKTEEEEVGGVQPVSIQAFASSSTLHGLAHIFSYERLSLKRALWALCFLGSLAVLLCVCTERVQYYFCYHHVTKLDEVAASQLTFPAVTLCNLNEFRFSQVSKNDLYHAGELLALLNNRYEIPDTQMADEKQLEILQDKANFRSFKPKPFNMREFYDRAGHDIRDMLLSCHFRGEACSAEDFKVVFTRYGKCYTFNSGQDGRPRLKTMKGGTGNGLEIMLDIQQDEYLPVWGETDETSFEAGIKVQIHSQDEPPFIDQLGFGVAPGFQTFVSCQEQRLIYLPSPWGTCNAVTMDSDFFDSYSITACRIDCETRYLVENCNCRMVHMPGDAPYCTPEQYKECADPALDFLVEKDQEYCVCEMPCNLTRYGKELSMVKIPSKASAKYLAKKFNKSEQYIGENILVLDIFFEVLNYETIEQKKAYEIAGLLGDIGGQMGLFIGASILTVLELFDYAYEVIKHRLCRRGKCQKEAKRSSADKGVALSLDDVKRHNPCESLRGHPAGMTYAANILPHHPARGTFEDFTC

T2: ASIC2a (Rattus norvegicus, UniProt Q62962)
T2 sequence (Q62962 1-512): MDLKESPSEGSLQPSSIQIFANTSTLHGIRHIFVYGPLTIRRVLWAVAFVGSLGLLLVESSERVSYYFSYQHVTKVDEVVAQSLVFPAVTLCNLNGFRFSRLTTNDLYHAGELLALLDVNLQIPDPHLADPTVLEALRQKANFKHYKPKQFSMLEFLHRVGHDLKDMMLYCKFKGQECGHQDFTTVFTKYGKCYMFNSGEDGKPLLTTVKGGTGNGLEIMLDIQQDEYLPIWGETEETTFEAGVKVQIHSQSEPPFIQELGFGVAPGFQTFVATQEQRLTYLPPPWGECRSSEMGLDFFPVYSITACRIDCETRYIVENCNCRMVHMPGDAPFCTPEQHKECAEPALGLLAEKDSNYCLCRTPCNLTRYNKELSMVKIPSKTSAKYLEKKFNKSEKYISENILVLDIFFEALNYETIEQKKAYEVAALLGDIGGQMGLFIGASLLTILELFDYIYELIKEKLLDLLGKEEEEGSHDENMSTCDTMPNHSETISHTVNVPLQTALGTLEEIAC

B1: human Acid Sensing Ion Channel 2b (hASIC2b) (protein)
chain: MSRIGGAGLPAAALTGPGRFRMAREEPAPAALAAAGQPGGGRGGERALQGPGVARRGRPSLSRAKLHGLRHMCAGRTAAGGSFQRRALWVLAFCTSFGLLLSWSSNRLLYWLSFPSHTRVHREWSRQLPFPAVTVCNNNPLRFPRLSKGDLYYAGHWLGLLLPNRTARPLVSELLRGDEPRRQWFRKLADFRLFLPPRHFEGISAAFMDRLGHQLEDMLLSCKYRGELCGPHNFSSVFTKYGKCYMFNSGEDGKPLLTTVKGGTGNGLEIMLDIQQDEYLPIWGETEETTFEAGVKVQIHSQSEPPFIQELGFGVAPGFQTFVATQEQRLTYLPPPWGECRSSEMGLDFFPVYSITACRIDCETRYIVENCNCRMVHMPGDAPFCTPEQHKECAEPALGLLAEKDSNYCLCRTPCNLTRYNKELSMVKIPSKTSAKYLEKKFNKSEKYISENILVLDIFFEALNYETIEQKKAYEVAALLGDIGGQMGLFIGASILTILELFDYIYELIKEKLLDLLGKEEDEGSHDENVSTCDTMPNHSETISHTVNVPLQTTLGTLEEIAC

Legend:
ASIC1 = target: T1, ASIC1; conditions: cited from earlier work
ASIC2a = target: T2, ASIC2a; conditions: cited from earlier work
[1] = target: human Acid Sensing Ion Channel 2a (hASIC2a) (human) (UniProt Q16515); experiment: cell-based or functional assay
CHO-K1 cells = experiment: whole-cell patch clamp recording of acid-induced currents in transfected CHO-K1 cells; assay type: cell-based, Chinese Hamster
Procedure: The mammalian expression vectors for hASIC2b and hASIC2a were constructed using appropriate expression vectors such as pcDNA3.1 (Clonetech) according to conventional molecular biological methods. Chinese Hamster Ovary (CHO)-K1 cells were seeded on a 35 mm dish in diameter at a density of 20,000 cells, and then transfected with various combinations of ASIC expression vectors with FuGENE6 transfection reagent (Roche) according to the manufacturer's instructions as follows: the hAISC2b expression vector alone (1 μg) for homomeric hASIC2b expression, hASIC2a and green fluorescent protein (GFP) expression vectors (1:2 molar ratio in a total of 1 μg) for hASIC2a expression, and hASIC2b/hASIC2a (1:2 molar ratio in a total of 1 μg) for heteromeric expression. Cells were used for electrophysiological measurements 2 days after the transfection. Successfully transfected cells were recognized by GFP emission signal. Ion currents were recorded using whole-cell patch clamp technique. Recording was made with an Axopatch 200B amplifier (Axon Instruments). Currents were filtered at 5 kHz and digitized by using Digidata 1321A interface. Data were interpolated using Origin6.0 (version 6.0, Microcal). Pipettes were pulled from borosilicate glass and had pipette resistances 1-4MΩ when filled with the intercellular solution. All recordings were made at room temperature (23±2° C.). […]

Molecule | block of ASIC1 (ASIC1) | sensitivity of cation transport by ASIC1a (ASIC1) | sensitivity of cation transport by ASIC2a (ASIC2a) | pH50 value for activation (hASIC2a/hASIC2b co-expressing CHO-K1 cells) [1] | peak current density at pH2.0 (hASIC2a/hASIC2b CHO-K1 transformants) [1] | peak current density at pH3.0 (hASIC2a/hASIC2b CHO-K1 transformants) [1] | peak current density at pH4.0 (hASIC2a/hASIC2b CHO-K1 transformants) [1] | acid-induced inward currents (CHO-K1 cells; 5 sec application of low pH solution, pH 2.0-4.0, FIG. 5) | effect on acid-induced ion currents of hASIC2a (CHO-K1 cells; co-expression with hASIC2a)
CCN(c1nc(N)c(C(=O)NC(=N)N)nc1Cl)C(C)C [ethylisopropylamiloride] | blocked | – | – | – | – | – | – | – | –
N=C(N)NC(=O)c1nc(Cl)c(N)nc1N [amiloride] | blocked | sensitive | sensitive | – | – | – | – | – | –
B1 | – | – | – | 3.43 pH | 113 pA/pF | 88.9 pA/pF | 21 pA/pF | inactive | inhibitory effect
